This note sets out measurements from patent US7981423B2, “Rage fusion proteins” (Transtech Pharma, Inc., priority 2004, dated 2011).

For one series, the target named is T1, amyloid-beta (Abeta) (Homo sapiens, UniProt P05067).
T1 construct: Amyloid Beta (1-40) from Biosource; purchased Biosource
Briefly: In vitro ligand binding ELISA, immobilized amyloid-beta. Conditions: various dilutions of fusion protein; FIG. 7. As for the experimental part: (§1) For example, the RAGE fusion protein may be used in a binding assay to identify potential RAGE ligands. In one example embodiment of such a binding assay, a known RAGE ligand may coated onto a solid substrate (e.g., Maxisorb plates) at a concentration of about 5 micrograms per well, where each well contains a total volume of about 100 microliters (μL). The plates may be incubated at 4° C. overnight to allow the ligand to absorb. Alternatively, shorter incubation periods at higher temperature (e.g., room temperature) may be used. […] The fusion protein bound to the immobilized ligand may be detected in a variety of ways. […] The bound complex may be detected by adding the alkaline phosphatase substrate, para-nitrophenylphosphate (PNPP), and measuring conversion of PNPP to para-nitrophenol (PNP) as an increase in absorbance at 405 nm. […] Binding was detected by the addition of an immunodetection complex containing a monoclonal mouse anti-human IgG1 diluted 1:11,000 to a final assay concentration (FAC) of 21 ng/100 μL, a biotinylated goat anti-mouse IgG diluted 1:500, to a FAC of […], and an avidin-linked alkaline phosphatase. […] Binding of the complex to the immobilized fusion protein was quantified by measuring conversion of PNPP to para-nitrophenol (PNP) which was-measured spectrophotornetrically at 405 nm. […]
A general note: An ELISA detects its analyte on a solid surface through an enzyme-linked reagent.

The target in the next series is T2, S100b (S100) (Homo sapiens, UniProt P04271).
T2 sequence (P04271 1-92): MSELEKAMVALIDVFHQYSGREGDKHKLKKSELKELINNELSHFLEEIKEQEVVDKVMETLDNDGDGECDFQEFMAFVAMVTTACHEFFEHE
Kind of series: In vitro ligand binding ELISA, immobilized S100b. Conditions: various dilutions of fusion protein; FIG. 7. As for the experimental part: as §1

The test system of another series is amyloid-beta (A-beta). Kind of series: Competition of a RAGE ligand with immobilized amyloid-beta for binding to the fusion protein. Conditions: TTP-4000 initial solution diluted 1:10 or 1:30; RAGE ligand 10 μM FAC. As for the experimental part:
The fusion protein of the present invention may also be used to identify compounds having the ability to bind to RAGE.
Known RAGE ligands were coated onto the surface of Maxisorb plates at a concentration of 5 micrograms per well. Plates were incubated at 4° C. overnight. Following ligand incubation, plates were aspirated and a blocking buffer of 1% BSA in 50 mM imidizole buffer (pH 7.2) was added to the plates for 1 hour at room temperature. The plates were then aspirated and/or washed with wash buffer (20 mM Imidizole, 150 mM NaCl, 0.05% Tween-20, 5 mM CaCl2 and 5 mM MgCl2, pH 7.2). […] The fusion protein was added at increasing dilutions of the initial sample. The RAGE fusion protein was allowed to incubate with the immobilized ligand at 37° C. for one hour after which the plate was washed and assayed for binding of the fusion protein. Binding was detected by the addition of an immunodetection complex containing a monoclonal mouse anti-human IgG1 diluted 1:11,000 to a final assay concentration (FAC) of 21 ng/100 μL, a biotinylated goat anti-mouse IgG diluted 1:500, to a FAC of […], and an avidin-linked alkaline phosphatase. The complex was incubated with the immobilized fusion protein for one hour at room temperature after which the plate was washed and the alkaline phosphatase substrate para-nitrophenylphosphate (PNPP) was added. […]

Series [1] can be described thus: Pharmacokinetic profile of TTP-4000 after IV injection. The format is in vivo, monkeys. Conditions: single IV bolus 5 mg/kg; plasma; after saturation of ligands; FIG. 11. The protocol:
Following collection, the tubes were placed on wet ice (maximum 30 minutes) until centrifugation under refrigeration (at 2 to 8° C.) at 1500×g for 15 minutes. Each harvested plasma sample was then stored frozen (−70° C.±10° C.) until assayed for RAGE polypeptide using an ELISA at various time-points following the injection, as described in Example 6.
Initially, 50 uL of the RAGE specific monoclonal antibody 1HB1011 at a concentration of 10 ug/mL in 1×PBS pH 7.3 is coated on plates via overnight incubation. When ready for use, plates are washed three times with 300 uL of 1× Imidazole-Tween wash buffer and blocked with 1% BSA. […] The samples are allowed to incubate at room temperature for one hour. After incubation, the plates are plates are washed three times. A Goat Anti-human IgG1 1 (Sigma A33 12) AP conjugate in 1×PBS with 1% BSA is added and allowed to incubate at room temperature for 1 hour. The plates are washed three times. Color was elucidated with paranitrophenylphosphate.

B1: TTP-4000: four domain RAGE fusion protein (SEQ ID NO: 32): human RAGE amino acids 1-251 linked to CH2 and CH3 domains of human IgG (protein)
chain: MAAGTAVGAWALVLSLWGAVVGAQNITARIGEPLVLKCKGAPKKPPQRLEWKLNTGRTEAWKVLSPQGGGPWDSVARVLPNGSLFLPAVGIQDEGIFRCQAMNRNGKETKSNYRVRVYQIPGKPEIVDSASELTAGVPNKVGTCVSEGSYPAGTLSWHLDGKPLVPNEKGVSVKEQTRRHPETGLFTLQSELMVTPARGGDPRPTFSCSFSPGLPRHRALRTAPIQPRVWEPVPLEEVQLVVEPEGGAVAPPSVFLFPPKPKDTLMISRTPEVTCVVVDVSHEDPEVKFNWYVDGVEVHNAKTKPREEQYNSTYRVVSVLTVLHQDWLNGKEYKCKVSNKALPAPIEKTISKAKGQPREPQVYTLPPSRDELTKNQVSLTCLVKGFYPSDIAVEWESNGQPENNYKTTPPVLDSDGSFFLYSKLTVDKSRWQQGNVFSCSVMHEALHNHYTQKSLSLSPGK
As to B1, in the series with amyloid-beta (Abeta), the “binding to immobilized amyloid-beta (absorbance at 405 nm)” value is listed as “specifically interact”. Also, in the series with S100b (S100), the “binding to immobilized S100b (absorbance at 405 nm)” value was “specifically interact”. Moreover, the “inhibition of binding of TTP-4000 to immobilized amyloid-beta by the RAGE ligand” value in the series on amyloid-beta (A-beta) is on record as “completely inhibited”. Also, the terminal half-life entry in series [1] is “greater than 300 hours”.
